Test results: article PMC5832849

Target: scFvD8 mutant (scFvD8-M), L96Tyr to Ser and H98Asp to Ser (mouse)
Assay: ELISA; competitive: scFv at 0.5 nM pre-incubated with preS1 recombinant protein (1000 to 0.01 nM in PBST) at 37 °C for 1 h, then added to plates coated with 100 nM preS1, room temperature 30 min; detected with HRP-labelled anti-SUMO antibody; relative affinity

Chain of scFvD8 mutant (scFvD8-M), L96Tyr to Ser and H98Asp to Ser (mouse) (heavy, as listed by the source, chain 1 of 2): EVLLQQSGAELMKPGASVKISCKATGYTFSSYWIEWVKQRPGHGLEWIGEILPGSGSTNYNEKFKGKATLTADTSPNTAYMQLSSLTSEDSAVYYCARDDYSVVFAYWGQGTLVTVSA
Chain of scFvD8 mutant (scFvD8-M), L96Tyr to Ser and H98Asp to Ser (mouse) (light, as listed by the source, chain 2 of 2): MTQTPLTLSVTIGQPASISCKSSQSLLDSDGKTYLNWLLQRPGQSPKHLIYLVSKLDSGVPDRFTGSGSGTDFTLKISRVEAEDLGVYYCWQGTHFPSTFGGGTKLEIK

HBV preS1 recombinant protein (domain or fragment)
relative affinity (concentration at 50% protein binding saturation): 5 nM
